Drawing on patent US20180258408A1, this text covers Cell uptake % of unmodified sulfamidase uptake (% of unmodified sulfamidase uptake) for one molecule.

This experiment deals with M6P receptors on MEF-1 fibroblasts. The experiment in a line: cell-based or functional assay.

B1: sulfamidase modified with R1 oxidation at 22 °C, 30 min, 10 mmol/L sodium meta-periodate (enzyme)
chain: RPRNALLLLADDGGFESGAYNNSAIATPHLDALARRSLLFRNAFTSVSSCSPSRASLLTGLPQHQNGMYGLHQDVHHFNSFDKVRSLPLLLSQAGVRTGIIGKKHVGPETVYPFDFAYTEENGSVLQVGRNITRIKLLVRKFLQTQDDRPFFLYVAFHDPHRCGHSQPQYGTFCEKFGNGESGMGRIPDWTPQAYDPLDVLVPYFVPNTPAARADLAAQYTTVGRMDQGVGLVLQELRDAGVLNDTLVIFTSDNGIPFPSGRTNLYWPGTAEPLLVSSPEHPKRWGQVSEAYVSLLDLTPTILDWFSIPYPSYAIFGSKTIHLTGRSLLPALEAEPLWATVFGSQSHHEVTMSYPMRSVQHRHFRLVHNLNFKMPFPIDQDFYVSPTFQDLLNRTTAGQPTGWYKDLRHYYYRARWELYDRSRDPHETQNLATDPRFAQLLEMLRDQLAKWQWETHDPWVCAPDGVLEEKLSPQCQPLHNEL
modifications: N-glycans oxidised with periodate (22 °C, 30 min, 10 mmol/L), then reduced with borohydride as in new method 1
As to B1, the Cell uptake % of unmodified sulfamidase uptake (% of unmodified sulfamidase uptake) came to 7.1.
